Residue numbers refer to the chain shown, from its start. Names may count otherwise.
B1: tail tube protein of phage SPR, wild type (natural protein)
chain: MKTVIQDTADVYFKRKSDGKLVFTAEAQTASFSQAISEEKLRGGIGNKPLYILKSEKEINLTVKNAFFDLEWLAMTQGETIQEETKVKVFDREHGLIVDDTNKVTLKGKPVSDVTFYNKKGLTYKIAVSTDGTYTIPTAFAAAKDKLTAVYQIEKVGRRLAIKASKFSERYEVEYRTIAYNPDTEEVYSDIYIQFPNVSPSGEFEMSLENGNALAPEIKFEALADTDTDEMAVVIEASRDENTAAPVEDTTGSTQSSDLGGTTE
notes: tail tube protein of Bacillus phage SPR; domains D1 and D2; GST removal with HRV 3C is told for the DSR2-tube complex; Alone it runs as monomeric and oligomeric species on SEC; Only D1 is seen in the maps; also called phage tail tube protein; source: E. coli BL21 Star (DE3); purified alone, or co-purified with DSR2 (Ni-NTA, glutathione resin, HRV 3C cleavage, HiTrap Q, Superdex 200); not shown: …
B2: defense-associated sirtuin 2 (DSR2), wild type (enzyme, Bacillus subtilis)
chain: MVKVDLESKRYGEKLKEVFLMLDNNVVECIKEITESSRNGKLVFFVGAGVSTLSDYPQWWRLVDKYHEELYGSPKKGNYSSDEYLRIPQIFYNVKGEMAFDGILKDFFQVDKPTNPIHDKILAMNPAHVITTNYDNLIDTACWKRGKYFSVISAEEDVANATSSRYLLKVHGDFRKGFKGENVVLKEDDYLNYDQNYPLISNLMKTIIATHTIVFIGYGLGDYNINMLLNWVRKLQKDSFHKPFFIRTDPSPIENETLIYYENKGLRIIDAASLIDSNEYDYLERYSAVMDLLIESQENKFITKDDEVIDYIYGKISPLFALQYIRKIDLKHVFEYDYHFEVNGTVVRHKNKGFGYMERFFELKESCDERSKLSKKQYERFNALFNFFEKNGVICMAKDAGTLNTSIEINSLAYHGKYDVMKKFIEEQSVSIEDDYKKAFFLACLGRWEESYDLYSNIILNSIDESNGCVYYLSQINRYRIYQSITQAVTQFNGLGLLTFGRHYKPFTDEFLARIEREMTNFNIDDLFNGMPFEFQKKYKILEFLSDNQFLYDDTVKLFELTNKVRSEMSEGSYSFGMSSDIVVLLRLYDNLRFLYENCLWSVSFHEFHQYIRNSMSLLIEKAEYERTRDIDELGFSFFGKKSGFFMEYYDFVNISRHFKIDDIKNLERSCSIDKIRFGEQEKIEEYLVGIAEEITKQFSANGMNVVFYTQFISEAKAALYFAKYVKLSEEGLGKIVKALLFYFPERDLDIGKRYVWLERLTKCNELPKSIISIIDDFLVLQAEKHIDQNYSEVSSNGLYSRDYGALIKHFEKNFISKRLSEITLCLTQDKQKQIDFLFKLLPLLSTNAKSHLLSFKSVENINDLMNGIRIGLIDEFTPEHEELIIEYLETRKVNYIVEKEKGIQTFSSNDYMSTFGIWYFLEEINNSKMEEFIGMDDQYDFFVDPENFDYKKFIPSWLKNYNDKLLGKIAGNKHMKHHVIEVLKERVKNSNDKRYLEILMNYFI
notes: DSR2 (defense-associated sirtuin 2) of Bacillus subtilis, NCBI protein WP_029317421; codon-optimized synthetic gene in pRSFDuet MCS1; Tetramer (dimer of dimers) by cryo-EM and SEC; also called WT DSR2; wild-type DSR2; source: E. coli BL21 Star (DE3), purified (Ni-NTA, HiTrap Q, Superdex 200); also co-purified with tube or DSAD1; not shown: 6×His, N-terminal, kept
B3: DSR2 H171A (enzyme, Bacillus subtilis)
chain: B2 chain with H171A
notes: DSR2 of Bacillus subtilis, NCBI protein WP_029317421, with H171A; source: E. coli, co-expressed with the tail tube protein, co-purified

Assays:
DSR2–tube complex = target: T1, DSR2–tube complex (Bacillus subtilis, UniProt P0DXN8); experiment: fluorescence NADase assay (ex […] nm, em […] nm); type: biochemical; conditions: 400 nM protein, 50 μM εNAD+, 10 mM MES pH 6.5, 75 mM KCl, 2 mM MgCl2, 37 °C
T1 construct: gene BKP58_08510; full-length DSR2, N-terminal 6xHis, E. coli BL21 Star (DE3), codon-optimized; tube GST tag removed by HRV 3C; tetrameric DSR2; DSR2:tube 4:2 (wild type) or 4:4 (H171A with NAD+); with Tail tube protein (Bacillus phage SPR)
T1 sequence (P0DXN8 1-1005): B2 chain
T1 sequence (A0AAE9G628 1-264 partner): B1 chain

[1] = target: defense-associated sirtuin 2 (DSR2), wild type (Bacillus subtilis) (UniProt P0DXN8); experiment: cryo-EM structure; co-purified complex incubated with 1 mM NAD+ before freezing; conditions: scale: DSAD1 per DSR2
[2] = target: defense-associated sirtuin 2 (DSR2), wild type (Bacillus subtilis) (UniProt P0DXN8); experiment: cryo-EM structure; purified DSR2 (~25 mg/mL), co-purified DSR2-DSAD1 (~25 mg/mL) or co-purified DSR2-tube (~4 mg/mL, polylysine-treated grid); no NAD+ added; Titan Krios 300 kV; conditions: scale: DSAD1 per DSR2
[3] = target: B2; experiment: as above; conditions: both partners purified
[4] = target: the molecule itself; experiment: SEC; purified tail tube protein alone
DSR2 H171A = target: B3; experiment: cryo-EM structure; co-purified complex incubated with 1 mM NAD+ before freezing; conditions: both partners purified
[5] = target: the molecule itself; experiment: SEC; purified DSR2 alone; Superdex 200 Increase 10/300 GL, 20 mM Tris-HCl pH 7.5, 150 mM NaCl, 1 mM DTT
[6] = target: the molecule itself; experiment: cryo-EM structure; co-purified complex incubated with 1 mM NAD+ before freezing

NC(=O)c1ccc[n+]([C@@H]2O[C@H](COP(=O)(O)OP(=O)(O)OC[C@H]3O[C@@H](n4cnc5c4ncn4ccnc54)[C@H](O)[C@@H]3O)[C@@H](O)[C@H]2O)c1 [εNAD^+]
fluorescence NADase assay (ex 300 nm, em 410 nm) (DSR2–tube complex): The purified DSR2–tube complex exhibited pronounced NADase activity

DSR anti-defense 1 (DSAD1) (natural protein)
stoichiometry N [1]: 0.5
stoichiometry N [2]: 0.5

B1
stoichiometry N [3]: 0.5 tube per DSR2 (printed as DSR2:tube 4:2)
binding result [4]: binds
stoichiometry N (DSR2 H171A): 1 tube per DSR2 (printed as DSR2:tube 4:4)

B2
stoichiometry N [5]: 4

B3
stoichiometry N [6]: 4

Reference: publication PMC10981675, “Structural basis for phage-mediated activation and repression of bacterial DSR2 anti-phage defense system” (Nature Communications, 2024)
